Here are results for 1 molecule from US20200040086A1 (BERLIN CHEMIE, published 2020).

For the test, the target named is T1, WIQYKGHC
T1 construct: 8mer of LY75 on the peptide microarray, chart Region 10
T1 peptide: WIQYKGHC
The experiment in a line: peptide microarray of 8mer LY75 peptides.

B1: LY75_A1 (antibody, V domains shown)
VH: EVQLVESGGGLVKPGGSLRLSCAASGFTYSNAWMSWVRQAPGKGLEWVGRIKSKTDGGTTDYAAPVQGRFTISRDDSKNTLYLQMNSLKTEDTAVYYCTIFGVVSFDYWGQGTLVTVSS
VL: DVQMTQSPSSLSASVGDRVTITCRASQSISDYLSWYQQRPGKAPNLLIYAASNLKTGVPSRFSGSGSGTDFTLTISTLQPEDFATYYCQQSYRSPWTFGQGTKVEIKR
notes: detected with anti-human IgG in the microarray; also called antibody LY75_A1; LY75_A1 monoclonal antibody
Turning to B1, the binding result is on record as “no binding (tested: 1 µg/mL)”.
